Laboratory results reported in paper PMC10427625, “Structural basis for negative regulation of the Escherichia coli maltose system” (Nature Communications, 2023).

Tests used:
Assay in all cases: pull-down; GST-tagged MalY incubated with an excess of WT or mutant MalT on ice for 30 min, Glutathione Sepharose 4B, buffer TKCl with 0.1 mM ADP and 10 μM PLP; elution with 20 mM glutathione, SDS-PAGE, Coomassie
Settings in all cases: both partners purified
[1] = biological target: T1, MalT (wild type), N-terminally His-tagged (Escherichia coli, UniProt P06993 1-901)
T1 construct: Purified with 0.1 mM ADP or 0.4 mM ATP; the elution at 103 kDa fits the whole protein; In PDB 8BOB only residues 1-423 are well defined; also called WT MalT; MalT WT; source: E. coli BL21 (DE3) ΔmalT220, purified (Ni Sepharose, gel filtration)
T1 sequence (looked up): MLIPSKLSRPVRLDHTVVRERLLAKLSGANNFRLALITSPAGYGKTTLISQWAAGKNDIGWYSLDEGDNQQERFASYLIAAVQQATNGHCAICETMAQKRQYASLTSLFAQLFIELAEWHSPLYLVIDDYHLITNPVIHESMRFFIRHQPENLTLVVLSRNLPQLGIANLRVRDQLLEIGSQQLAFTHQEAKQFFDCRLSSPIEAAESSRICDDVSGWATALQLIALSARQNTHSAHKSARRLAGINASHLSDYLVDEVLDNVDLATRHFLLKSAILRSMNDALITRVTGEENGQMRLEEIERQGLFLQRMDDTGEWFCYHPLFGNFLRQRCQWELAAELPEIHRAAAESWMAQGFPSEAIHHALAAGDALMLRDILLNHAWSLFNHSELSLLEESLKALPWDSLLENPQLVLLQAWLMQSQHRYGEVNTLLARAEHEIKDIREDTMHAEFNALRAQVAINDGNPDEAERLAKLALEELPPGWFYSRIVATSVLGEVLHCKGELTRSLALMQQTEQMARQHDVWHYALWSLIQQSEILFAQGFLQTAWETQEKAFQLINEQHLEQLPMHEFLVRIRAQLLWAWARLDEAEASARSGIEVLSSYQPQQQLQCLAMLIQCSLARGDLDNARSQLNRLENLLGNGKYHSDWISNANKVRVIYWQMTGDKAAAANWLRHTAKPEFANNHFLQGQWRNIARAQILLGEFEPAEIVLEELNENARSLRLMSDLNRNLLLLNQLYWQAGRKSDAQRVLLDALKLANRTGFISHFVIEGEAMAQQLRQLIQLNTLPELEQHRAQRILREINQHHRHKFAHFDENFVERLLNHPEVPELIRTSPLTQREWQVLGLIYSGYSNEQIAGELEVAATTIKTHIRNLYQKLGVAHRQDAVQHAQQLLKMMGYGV

[2] = biological target: T2, MalT-N169A, N-terminally His-tagged (Escherichia coli, UniProt P06993 1-901, N169A)
T2 construct: MalT of Escherichia coli, variant of plasmid pOM206 made by site-directed mutagenesis; source: E. coli BL21 (DE3) ΔmalT220, purified (Ni Sepharose, gel filtration)
T2 sequence (looked up): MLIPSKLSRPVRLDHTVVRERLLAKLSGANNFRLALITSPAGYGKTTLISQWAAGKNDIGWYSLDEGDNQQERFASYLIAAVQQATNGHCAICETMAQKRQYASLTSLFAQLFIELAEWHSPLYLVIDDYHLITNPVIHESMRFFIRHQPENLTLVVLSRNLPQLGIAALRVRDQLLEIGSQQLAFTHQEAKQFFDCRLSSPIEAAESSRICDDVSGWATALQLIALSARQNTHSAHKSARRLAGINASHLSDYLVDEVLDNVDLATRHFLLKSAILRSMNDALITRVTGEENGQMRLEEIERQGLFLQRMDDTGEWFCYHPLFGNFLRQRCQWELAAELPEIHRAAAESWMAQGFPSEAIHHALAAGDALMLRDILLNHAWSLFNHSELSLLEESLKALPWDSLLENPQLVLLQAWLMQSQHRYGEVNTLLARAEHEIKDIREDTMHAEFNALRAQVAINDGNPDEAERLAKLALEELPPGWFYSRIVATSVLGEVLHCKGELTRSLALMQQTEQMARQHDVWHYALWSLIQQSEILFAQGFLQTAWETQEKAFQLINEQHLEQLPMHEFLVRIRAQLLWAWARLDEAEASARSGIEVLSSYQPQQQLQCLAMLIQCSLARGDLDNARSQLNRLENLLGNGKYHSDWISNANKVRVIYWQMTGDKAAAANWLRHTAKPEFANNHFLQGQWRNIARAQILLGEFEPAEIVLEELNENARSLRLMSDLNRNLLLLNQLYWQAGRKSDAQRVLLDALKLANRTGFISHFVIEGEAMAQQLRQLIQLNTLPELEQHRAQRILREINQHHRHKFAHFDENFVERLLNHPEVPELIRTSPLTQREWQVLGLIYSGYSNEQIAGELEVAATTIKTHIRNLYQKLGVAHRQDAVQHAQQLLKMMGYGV

[3] = biological target: T3, MalT-E140A, N-terminally His-tagged (Escherichia coli, UniProt P06993 1-901, E140A)
T3 construct: MalT of Escherichia coli, variant of plasmid pOM206 made by site-directed mutagenesis; source: E. coli BL21 (DE3) ΔmalT220, purified (Ni Sepharose, gel filtration)
T3 sequence (looked up): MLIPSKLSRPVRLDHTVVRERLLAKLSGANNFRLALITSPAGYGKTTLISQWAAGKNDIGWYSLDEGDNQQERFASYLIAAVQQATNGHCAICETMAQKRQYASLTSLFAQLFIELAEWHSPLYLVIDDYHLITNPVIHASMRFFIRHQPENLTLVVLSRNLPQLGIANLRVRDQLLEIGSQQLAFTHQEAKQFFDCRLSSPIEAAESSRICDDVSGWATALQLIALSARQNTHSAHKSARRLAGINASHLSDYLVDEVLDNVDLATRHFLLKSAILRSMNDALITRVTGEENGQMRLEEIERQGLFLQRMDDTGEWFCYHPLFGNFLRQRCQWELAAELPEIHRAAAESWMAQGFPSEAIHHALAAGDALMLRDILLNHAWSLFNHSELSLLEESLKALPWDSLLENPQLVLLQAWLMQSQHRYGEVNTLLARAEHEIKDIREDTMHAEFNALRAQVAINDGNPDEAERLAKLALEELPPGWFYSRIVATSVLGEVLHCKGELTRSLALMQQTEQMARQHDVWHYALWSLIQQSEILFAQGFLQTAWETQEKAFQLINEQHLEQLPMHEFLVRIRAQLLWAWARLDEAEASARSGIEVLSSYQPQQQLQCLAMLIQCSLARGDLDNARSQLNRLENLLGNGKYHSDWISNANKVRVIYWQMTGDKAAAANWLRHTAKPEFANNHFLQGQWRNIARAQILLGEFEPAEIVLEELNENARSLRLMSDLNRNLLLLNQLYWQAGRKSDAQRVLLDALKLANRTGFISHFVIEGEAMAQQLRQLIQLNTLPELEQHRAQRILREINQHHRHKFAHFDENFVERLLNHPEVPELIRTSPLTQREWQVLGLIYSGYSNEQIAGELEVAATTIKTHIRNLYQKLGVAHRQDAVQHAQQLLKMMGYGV

binding result [1]: binds
binding result [2]: binds
binding result [3]: binds
B1: N-terminally GST-tagged MalY (enzyme, Escherichia coli, UniProt P23256 1-390, looked up)
chain: MFDFSKVVDRHGTWCTQWDYVADRFGTADLLPFTISDMDFATAPCIIEALNQRLMHGVFGYSRWKNDEFLAAIAHWFSTQHYTAIDSQTVVYGPSVIYMVSELIRQWSETGEGVVIHTPAYDAFYKAIEGNQRTVMPVALEKQADGWFCDMGKLEAVLAKPECKIMLLCSPQNPTGKVWTCDELEIMADLCERHGVRVISDEIHMDMVWGEQPHIPWSNVARGDWALLTSGSKSFNIPALTGAYGIIENSSSRDAYLSALKGRDGLSSPSVLALTAHIAAYQQGAPWLDALRIYLKDNLTYIADKMNAAFPELNWQIPQSTYLAWLDLRPLNIDDNALQKALIEQEKVAIMPGYTYGEEGRGFVRLNAGCPRSKLEKGVAGLINAIRAVR
notes: MalY of E. coli; full-length malY amplified from E. coli genomic DNA, cloned in pGEX-6P-1; Bait of the pull-down; 10 μM PLP present; not shown: GST, N-terminal, kept
